Source: patent US20190367589A1
Positions count from the first letter of the chain named.

B1: 4D11 Fab (Fab, V domains shown)
VH: EVQLLESGGGLVQPGGSLRLSCAASGFTFSSYAMSWVRQAPGKGLEWVSSIDPEGRQTYYADSVKGRFTISRDNSKNTLYLQMNSLRAEDTAVYYCAKDIGGRSAFDYWGQGTLVTVSS
VL: DIQMTQSPSSLSASVGDRVTITCRASQSISSYLNWYQQKPGKAPKLLIYAASSLQSGVPSRFSGSGSGTDFTLTISSLQPEDFATYYCQQTVVAPPLFGQGTKVEIKR
B2: anti-Jagged 32 IgG (antibody, V domains shown)
VH: EVQLLESGGGLVQPGGSLRLSCAASGFTFSSYAMSWVRQAPGKGLEWVSSIEQMGWQTYYADSVKGRFTISRDNSKNTLYLQMNSLRAEDTAVYYCAKSAAAFDYWGQGTLVTVSS
VL: DIQMTQSPSSLSASVGDRVTITCRASQSISSYLNWYQQKPGKAPKLLIYAASLQSGVPSRFSGSGSGTDFTLTISSLQPEDFATYYCQQTVVAPLTFGQGTKVEIKR
B3: anti-Jagged 13 IgG (antibody, V domains shown)
VH: B2 VH with Q53T, M54Q, W56P, Q57T, Y59L, S99T, A100S, A101S
VL: B2 VL with A51S, S75G, T90N, V92A, A93T

How the values were obtained:
[1] = target: rat Jagged 2 (rJAG2) (rat) (UniProt P97607); experiment: drawn table 'Kd (nM)' of Fab; method not stated; the legend names the matured antibody as 4D11
mouse Jagged 1 (mouse) [2] = experiment: ELISA, ligand-Fc coated (method lists rat Jagged 1-Fc), anti-human IgG Fab-specific HRP
mouse Jagged 1 (mouse) [3] = experiment: ELISA as for the other curves; sheet and legend say mouse Jagged 1, the method lists rat Jagged 1-Fc as the coated protein

Row | Binder | Kd [1] | affinity (ELISA) (mouse Jagged 1 (mouse) [2]) | EC50 (read off the curve) (mouse Jagged 1 (mouse) [3])
1 | B1 | < 1 nM | – | –
2 | B2 | – | > 30 nM | 50 nM
3 | B3 | – | > 30 nM | –
